Laboratory results as given in patent publication US7244606B2, “Modified BACE” (Elan Pharmaceuticals, Inc., priority 2002, dated 2007).
“And” between values parts separate entries of the source, which are not always exact repeats. Equal entries are not always repeated.

B1: E. Coli P33K-BACE: recombinant human BACE with proline to lysine mutation at position 33, terminated at S432, expressed in E. coli and refolded (protein, listed as Homo sapiens)
chain: TQHGIRLPLRSGLGGAPLGLRLPRETDEEPEEKGRRGSFVEMVDNLRGKSGQGYYVEMTVGSPPQTLNILVDTGSSNFAVGAAPHPFLHRYYQRQLSSTYRDLRKGVYVPYTQGKWEGELGTDLVSIPHGPNVTVRANIAAITESDKFFINGSNWEGILGLAYAEIARPDDSLEPFFDSLVKQTHVPNLFSLQLCGAGFPLNQSEVLASVGGSMIIGGIDHSLYTGSLWYTPIRREWYYEVIIVRVEINGQDLKMDCKEYNYDKSIVDSGTTNLRLPKKVFEAAVKSIKAASSTEKFPDGFWLGEQLVCWQAGTTPWNIFPVISLYLMGEVTNQSFRITILPQQYLRPVEDVATSQDDCYKFAISQSSTGTVMGAVIMEGFYVVFDRARKRIGFAVSACHVHDEFRTAAVEGPFVTLDMEDCGYNIPQTDES
modifications: Amino acid sequence of human BACE with P33K mutation.
B2: E. Coli BACE: human BACE prepared as above in E. coli without the P33K mutation (protein)
chain: MASMTGGQQMGRGSMAGVLPAHGTQHGIRLPLRSGLGGAPLGLRLPRETDEEPEEPGRRGSFVEMVDNLRGKSGQGYYVEMTVGSPPQTLNILVDTGSSNFAVGAAPHPFLHRYYQRQLSSTYRDLRKGVYVPYTQGKWEGELGTDLVSIPHGPNVTVRANIAAITESDKFFINGSNWEGILGLAYAEIARPDDSLEPFFDSLVKQTHVPNLFSLQLCGAGFPLNQSEVLASVGGSMIIGGIDHSLYTGSLWYTPIRREWYYEVIIVRVEINGQDLKMDCKEYNYDKSIVDSGTTNLRLPKKVFEAAVKSIKAASSTEKFPDGFWLGEQLVCWQAGTTPWNIFPVISLYLMGEVTNQSFRITILPQQYLRPVEDVATSQDDCYKFAISQSSTGTVMGAVIMEGFYVVFDRARKRIGFAVSACHVHDEFRTAAVEGPFVTLDMEDCGYNIPQTDES
B3: CHO BACE: human BACE construct Asp2-2L-TM-His6 expressed in CHO cells; 50:50 mixture of two isoforms (control) (protein)
chain: TQHGIRLPLRSGLGGAPLGLRLPRETDEEPEEPGRRGSFVEMVDNLRGKSGQGYYVEMTVGSPPQTLNILVDTGSSNFAVGAAPHPFLHRYYQRQLSSTYRDLRKGVYVPYTQGKWEGELGTDLVSIPHGPNVTVRANIAAITESDKFFINGSNWEGILGLAYAEIARPDDSLEPFFDSLVKQTHVPNLFSLQLCGAGFPLNQSEVLASVGGSMIIGGIDHSLYTGSLWYTPIRREWYYEVIIVRVEINGQDLKMDCKEYNYDKSIVDSGTTNLRLPKKVFEAAVKSIKAASSTEKFPDGFWLGEQLVCWQAGTTPWNIFPVISLYLMGEVTNQSFRITILPQQYLRPVEDVATSQDDCYKFAISQSSTGTVMGAVIMEGFYVVFDRARKRIGFAVSACHVHDEFRTAAVEGPFVTLDMEDCGYNIPQTDESHHHHHH
B4: β-secretase with the pro-segment intact: β-secretase with the pro-segment intact, from Shi et al., 2001 (protein, UniProt P56817 22-501, looked up)
pro-form: TQHGIRLPLRSGLGGAPLGLRLPRETDEEPEEPGRRGSFVEMVDNLRGKSGQGYYVEMTVGSPPQTLNILVDTGSSNFAVGAAPHPFLHRYYQRQLSSTYRDLRKGVYVPYTQGKWEGELGTDLVSIPHGPNVTVRANIAAITESDKFFINGSNWEGILGLAYAEIARPDDSLEPFFDSLVKQTHVPNLFSLQLCGAGFPLNQSEVLASVGGSMIIGGIDHSLYTGSLWYTPIRREWYYEVIIVRVEINGQDLKMDCKEYNYDKSIVDSGTTNLRLPKKVFEAAVKSIKAASSTEKFPDGFWLGEQLVCWQAGTTPWNIFPVISLYLMGEVTNQSFRITILPQQYLRPVEDVATSQDDCYKFAISQSSTGTVMGAVIMEGFYVVFDRARKRIGFAVSACHVHDEFRTAAVEGPFVTLDMEDCGYNIPQTDESTLMTIAYVMAAICALFMLPLCLMVCQWRCLRCLRQQHDDFADDISLLK
modifications: pro-form

Experiments:
[1] = tested on: substrate S-1 (SEQ ID NO: 10); test: BACE activity assay: cleavage of substrate S-1, HPLC tryptophan fluorescence peak area; type: biochemical; details: for Activity Assays (Fluorescence Peak Area): 50 μl BACE sample containing 5–10 pmoles protein, 5 μl 1 mM substrate S-1, NaOAc pH 5.0, 1–2 hours at 37° C.
Method: The activity of P33K-BACE expressed in E. coli according the above Examples was compared to the activity of human BACE prepared as above without the P33K mutation, and to human BACE expressed in CHO cells.
To assay for BACE activity, the following activity assay conditions were utilized, unless specifically indicated otherwise: 20 μl 1 M sodium acetate (NaOAc), pH 5.0; 125 μl H2O; 50 μl BACE sample containing 5–10 pmoles protein; and 5 μl 1 mM substrate S-1 (SEQ ID NO: 10).
The 200 μl assay reaction was incubated for 1–2 hours at 37° C. Activity was expressed as fluorescence peak area generated by the liberation of a fluorescent (Tryptophan fluorescence) product upon cleavage of Substrate S-1 by recombinant BACE. The reaction was stopped with 100 μl of 4% TFA in H2O. In order to separate the cleavage products and thereby detect activity of recombinant BACE, 50 microliters of the reaction mixture was injected into a Hewlett Packard Model 1100 HPLC equipped with an Alltech Rocket™ column (7 mm i.d., ×53 mm length, C18, 3 μm) pre-equilibrated with 88% Reagent A (0.1% TFA in water), 12% Reagent B (0.1% TFA in acetonitrile). The flow rate over this column was 3 ml per minute.

polypeptide substrate = details: assayed with a polypeptide substrate; cited from earlier work

Molecule | Activity Assays (Fluorescence Peak Area) [1] | activity compared with BACE ([1]; result in words) | k(cat)/K(m), fold less than β-secretase (polypeptide substrate) [fold]
B1 | 38.41 and 26.50 and 32.84 | essentially the same activity of BACE | –
B2 | 31.03 and 45.80 and 31.86 | – | –
B3 | 83.32 and 85.20 and 78.07 | – | –
B4 | – | – | 2.3
